Results reported in the RNAGym collection of RNA variant scans (doi:10.1073/pnas.2313332121).

B1: TPR t1 (parent)
chain: GACCAAUCUGCCCUCAGAGCUCGAGAACAUCUUCGGAUGCAGAGGAGGCAGGCUUCGGUGGCGCGAUAGCGCCAACGUCCUCAACCUCCAAUGCAUCCCACCACAUGAUGAUGCCUGAAGAGCCUUGGUUUUUUG

Variants of: B1
Assay: polymerase ribozyme fitness, log enrichment relative to wild type (log ratio); higher = more active; in vitro selection for triplet polymerase activity
How it was run: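 Libraries of mutants in each subunit of a heterodimeric triplet polymerase ribozyme were generated by PCR and transcribed. In triplicate, each went through one in vitro selection round: annealing with biotinylated primer, partner subunit and triplets; frozen incubation at −7 °C; gel excision of extended constructs; streptavidin-bead capture; RT-PCR. Fitness, taken from Illumina sequencing of input and output libraries, is the logarithm of a genotype's enrichment over wild-type enrichment, averaged across replicates with inverse-variance weights. The logarithm is base 2, and genotypes needed ≥10 input reads and ≥1 read per output to be kept.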

First: GACCAAUCUGCGCUCAGAGCUCGAGAACAUCUUCGGAUGCAGAGGAGGCAGGCUUCGGUGGCGCGAUAGCGCCAACGUCCUCAACCUCCAAUGCAUCCCACCACAUGAUGAUGCCUGAAGCGCCUUGGUUUUUUG
Second: GACCAAUCUGCGCUCAGAGCUUGAGAACAUCUUCGGAUGCAGAGGAGGCAGGCUUCGGUGGCACGAUAGCGCCAACGUCCUCAACCACCAAUGCAUCCCACCACAUGAUGAUGCCUGAAGAGCCUUGGUUUUUUG
The “polymerase ribozyme fitness (log ratio)” value of the first is higher: 1.5 for the first, -4.98 for the second.

Going from GACCAAUCUGCGCUCAGAGCUCGAGAAUAUCUUCGGAUGCAGAGGAGGCAGGCUUCGGUGGCGCGAUAGCGCCAACGUCCUCAACCUCCAAUGCAUCCCACCACAUGAUGAUGCCUGAAGAGCUUUGGUUUUUUG to GACCAAUCUGCGUUCAGAGAUCGAGAACAUCUUCGGAUGAAGAGGAGGCAGGCUUUGGUGGCGCGAUAGCGCCAACGUCCUCAACCUCCAAUGCAUCCCACCACAUGAUGAUGUAUGAAGAGCCUUGGUUUUUUG, the “polymerase ribozyme fitness (log ratio)” value falls from -0.261 to -3.7.

First: GACCAAUCUGCGCUCAGAGCUAGAGAACAUCUUCGGAUGCAGAGGAGGAAGGCUAUGGUGGGGCGAUAGCGCCAACGUCCUCAACCUCCAAUUCAUCCCACCACAUGAUGAUGCCUGAAGAGCCUUGGUUUUUUG
Second: GACCAAUCUGCGCUCAGAGCUCGAGAACAUCUUCGGAUGCAGAGGAGGCAGGCUUCGGUGGCGCGAUAGCGCCAACGUCCUCCACCUCCAAUGCAUCCCACCACAUGAUGAUGCCUGAAGAGCCUUGGUUUUUUG
The “polymerase ribozyme fitness (log ratio)” value of the first is lower: -7.34 for the first, -1.43 for the second.

First: GACCAAUCUGCGCUCAGAGUUCGAGAACAUCUUCGGAUGCAGAGGAGGCAGGCUUCGGUGGCGCGUUAACGCCAACGUCCUCAACCUCCAAUGCAUCCCACCACAUGAUGAUGCCUGAAGAGCCUUGGUUUUUUG
Second: GACCAAUCUGCGCUCAGAGCUCGAGAACAUCUUCGGAUGCAGAGGUGGAAGGCUUCGGUGGCGCGAUAGCGCCAACGUCCUCAACCUCCAAUGCAUCCCACCACAUGAUGAUGCCUGAAGAGCCUUGGUUUUUUG
The “polymerase ribozyme fitness (log ratio)” value of the first is lower: -5.04 for the first, -1.36 for the second.

Going from GACCAAUCUGCGUUCAGAUCUCGAGAACAUCUUCGGAUGCAGACGAGGCAGGCUUCGGUGGCGCGAUAGCGCAAACGUCCUCAACCUCCAAUACAUCCCACCACAUGAUGAUGCCUGAAGAGCCUUGGUUUUUUG to GACCAAUCUGCGCUCAGAGCUCGAGAACAUCUUCGGAUGCAGAGGAGGCAGGCUUCGGUGGCGCGAUAGCGCCCACGUCCUCAACCUCAAAUGCAUCCCACCACAUGAUGAUGCCUGAAGAGCCUUGGUUUUUUG, the “polymerase ribozyme fitness (log ratio)” value rises from -4.75 to -1.6.

Going from GACCAAUCUGCGCUCAGAGCUCGAGAACAUCUUCGGAUGGAGAGGAGGCAGGCUUCGGUGGUGCGAUAGCGCCAACGUCCUCAACCUCCAAUGCAUCCCACCACAUGAUGAUGCCUGAAGAGCCUUGGUUUUUUG to GACCAAUCUGCGCUCAGAGCUCGAGAACAUCUUCGGAUGCAGAGGAGGCAGGCUUCGGUGGCGCGCUAGCGCCAACGUCCUCAACCUCCAAUGCAUCCCACCACAUGAUGAUGCCUGAAGAGCCUUGGUUUUUUG, the “polymerase ribozyme fitness (log ratio)” value rises from -0.941 to -0.578.

First: GACCAAUCUGCGCUCAGAGAUCGAGUACAUCUUCGGAUGCAGAGGAGGCAGGCUUCGGUGGCGCGAUAGCGCCAACGUCCUCAACCUCCAAUGCAUCCCACCACAUGAUGAUGCCUGAAGAGCCUUGGUUUUUUG
Second: GACCAAUCUGCGCUAAGAGCUCGAGAACAUCUUCGGAUGCAGAGGAGGCCGGCUUCGGUGGCGCGAUAGCGCCAACGUCCUCAACCUCCAAUGCAUCCCACCACAUGAUGAUGCCUGAAGAGCCUUGGUUUUUUG
The “polymerase ribozyme fitness (log ratio)” value of the first is lower: -5.8 for the first, -2.29 for the second.

Going from GACCAAUCUGCGCUCAGAGCUCGAGAACAUCUUCGGAUGCAGAGGAGGCUGGCUUCGGUGGCGCGAUAGCGCUAACGUCCUCAACCUCCAAUGCAUCCCACCACAUGAUGAUGCCUGAAGAGCCUUGGUUUUUUG to GACCAAUCUGCGCUAAGAGCUCGAGAACAUCUUCGGAUGCGGAGGAGGCAGGCUUCGGUGGCGCGAUAGCGCCAACGUCCUCAACCUCCAAUGCAUCCCACCACAUGAUAAUGCCUGAAGAGCCUUGGUUUUUUG, the “polymerase ribozyme fitness (log ratio)” value falls from -0.885 to -4.25.

Going from GACCAAUCUGCGCUGAGAGCUCGAGAACAUCUUCGGAUGCAGAGGAGGCAUGCUUCGGUGGCGCGAUAGCGCAAACGUCCUCAACCUCCAAUGCAUCCCACCACAUGAUGAUGCCUUAAGAGCCUUGGUUUUUUG to GACCAAUCUGCGCUCAGAGCUCGAGAACAUCUUCGGAUGCAGAGGAGGGAGGCUUCGGUGGCGCGAUAGCGCCAACGUCCUCAACCUCCAAUGCAUCCCACCACAUGAUGAUGCCUGAAGAGCCUUGGUUUUUUG, the “polymerase ribozyme fitness (log ratio)” value rises from -2.07 to -0.51.

First: GACCAAUCUGCGCUCAGAGCUAGAGAACAUCUUCGGAUGCAGAGGAGGCAGGCUUCGGUGGCGCGAUAGCGCCAACGUCCUCAACCUCCAAUGCAUCCCACCACAUGAUGAUGCCUGAAGAGCCUUGGUUUUUUG
Second: GACCAAUCUGCGCUAAGAGCUCGAGAACAUCUUCGGAUUCGGAGGAGGGAGGCUUCGGUGGCGCGAUAGCGCCAACGUCCUCAACCUCCAAUGCAUCCCACCACAUGAUGAUGCCUGAAGAGCCUUGGUUUUUUG
The “polymerase ribozyme fitness (log ratio)” value of the first is higher: -4.18 for the first, -4.44 for the second.

Going from GACCAAUCUGCGCUGAGAGCUCGAGAACAUCUUCGGAUGCAGAGGAGGCAGGCUUCGGUGGCGCGAUAGCGCCAACGUCCUCAACCUCCAAUGCAUCCCACCACAUGAUGAUGCCUGAAGAGUCUUGGUUUUUUG to GACCAAUCUGCGCUCAGAGCUCGAGAACAUCUUCGGAUGCAGAGGUGGAAGGCUUCGGUGGCGCGAUAGCGCCAACGUCCUCAACCUCCAAUGCCUCCCACCACAUGAUGAUGCCUGAAGAGCCUUGGUUUUUUG, the “polymerase ribozyme fitness (log ratio)” value falls from -1.81 to -2.16.

Compared with GACCAAUCUGCGCUCAGAGCUCGAGAACAUCUUAGGAUGCAGAGGAGGCAGGCUUCGGUGGUGCGAUAGCGCCAACGUCCUCAACCUCCAAUGCAUCCCACCACAUGAUGAUGCCUGAAGAGCCUUGGUUUUUUG, GACCAAUCUGCGCUCAGAGCUCGAGAACAUCUUCGGAUGCAGAGGAGGCAGGUUUCGGUGGCGUGAUAGCGCCAACGUCCUCAACCUCCAAUGCAUCCCACCACACGAUGAUGCCUGAAGAGCCUUGGUUUUUUG is higher in “polymerase ribozyme fitness (log ratio)” value: -2.32 for the first, -0.438 for the second.

GACCAAUCUGCGCUCAGAGCUCGAGAACAUCUUCGGAUGUAGAGGAGGCAGGCUACGGUGGCGCGAUAGCGCCAACGUCCUGAACCUCCAAUGCAUCCCACCACAUGAUGAUGCCUGAAGAGCCUUGGUUUUUUG and GACCAAUCUGCGCUCAGAGCUCGAGAACAUCUUCGGAUGCAGAGGAGGCAGGCUUCGGUGGCGCGAUAGCGCCAACGUCCUCAACCUCCAAUGCAUCCCCCCACAUGAUGAUGCCUGAAGAGCCUUGGUUUUUUG are within 0.2 log units of each other in “polymerase ribozyme fitness (log ratio)” value: -0.877 for the first, -0.741 for the second.

First: GACCAAUCUGCGCUCAGAGUUCGAGAACAUCUUCGGAUGCAGAGGAGGCAGGCUUCGGUGGCGCGAUAGCGCCAACGUCCUCAACCUCCAAUGCAUCCCACCACAUGAUGAUGCCUGAAGAGCCUUGGUUUUUUG
Second: GACCAAUCUGCGCUCAGAGCUCGAGAACAUCUUCGGAUGCAGAGGAGGCAGGCUUCGGUGGCGCGAUAGCGCCAUCGUCCUCAACCUCCAAUGCAUCCCACCACAUGAUGAUGCCUGAAGAGCCUUGGUUUUUUG
The “polymerase ribozyme fitness (log ratio)” value of the first is lower: -0.703 for the first, 0.372 for the second.

Compared with GACCAAUCUGCGCUCAGAGCUCGAGAACAUCUUCGGAUGCAGAGGAGGAAGGCUUCGGUGGCGCGAUAGCGCCAACCUCCUCAACCUCCAAUGCAUCCCACCACAUGAUGAUGCCUGAAGAGCCUUGGUUUUUUG, GACCAAUCUGCGCUCAGAGCUCGAGAACAUCUUCGGAUGUAGAGGACGCAGGCUUCGGUGGCGCGAUAGCGCCAACGUUCUGAACCUCCAAUGCAUCCCACCACAUGAUGAUGCCUGAAGAGACUUGGUCUUUUG is lower in “polymerase ribozyme fitness (log ratio)” value: -0.254 for the first, -2.93 for the second.

First: GACCAAUCUGCGCUCAGAGCUCGAGAAUAUCUUCGGAUGCAGAGGAGGCAGGCUUCGGUGGCGCGAUAGCUCCAACGUCCUCAACCUCCAAUGCAUCCCACCACAUGAUGAUGCCUGAAGAGCUUUGGUUUUUUG
Second: GACCAAUCUGCGCUUAGAGCUCGAGAACAUCUUCGGAUGCAGAGGAGGCAGGCUUCGGUGGAGCGAUAGCGCCAACGUCCUCAACCUCCAAUGCAUCCCACCACAUGAUGAUGCCUGAAGAGCCUUGGUUUUUUG
The “polymerase ribozyme fitness (log ratio)” value of the first is higher: -0.951 for the first, -1.99 for the second.

GACCAAUCUGCGCUCAGAGAUCGAGAACAUCUUCGGAUGCAGAGGAGGCAGGCUUCGGUGGCGCGAUAACGCCAACGUUCUCAACCUCCAAUGCAUCCCACCACAUGAUGAUGCCUGAAGAGUCUUGGUUUUUUG and GACCAAUCUGCGCUCAGAGCUCGAGAACAUCUUCGGAUGCAGAGGAGGCAGGCUUCGGUGGCGCGAUAGCGCCAACGUCCUCAACCUCCAAUGCAUCCCCCCACAUGAUGAUUCCUGAAGAGCCUUGGUUUUUUG are within 0.2 log units of each other in “polymerase ribozyme fitness (log ratio)” value: -5.46 for the first, -5.35 for the second.

Going from GACCAAUCUGCGCUCAGAGCUCGAGAACAUCUUCGGAUGCAGAGGAGGGAGGCUUCGGUGGCGCGAUAGCGACAACGUCCUCAACCUCUAAUGCAUCCCACAACAUGAUGAUGCCUGAAGAGCCUUGGUUUUUUG to GACCAAUCUGCGCUCAGAGCUCGAGAACAUCUUAGGAUGCCGAGGAGGCAGGCUUCGGUGGCGCGAUAGCCCCAACGUACUCAACCUCCAAUGCAUCCCACCACAUGAUGAUGCCUGAAGAGCCUUGGUUUUUUG, the “polymerase ribozyme fitness (log ratio)” value falls from -1.91 to -6.92.

Compared with GACCAAUCUGCGCUCAGAGCUCGAGAAGAUCUUCGGAUGCAGAGGAGGCAGGCUUCGGUGGCGCGAUAGCGCCAACGUCCUCAACCUCCAAUGCAUCCCACCACAUGAUGAUGCCUGAAGAGCCUUGGUUUUUUG, GACCAAUCUGCGCUCAGAGCUAGAGAACAUCUUCGGAUGCGGAGGAGGCAGGCUUCGGUGGCGCGAUAGCUCCAACGUCCUCAACCUCCAAUGCAUCCCACCACAUGAUGAUGCCUGAAGAGCAUUGGUUUUUUG is lower in “polymerase ribozyme fitness (log ratio)” value: -1.82 for the first, -4.76 for the second.

Going from GACCAAUCUGCGCUCAGAGCUCGAGAACAUCUUCGGAUGCAGAGGAGGCAGGUUUCGGUCGCGCGAUAGCGCCAACGUCCUCAACCUCUAAUGCAUCCCACUAUAUGAUGAUGCCUGAAGAGCCUUGGUUUUUUG to GACCAAUCUGCGCUUAGAGCUCGAGAACAUCUUCGGAUGCAGAGGAGGCAGGCUUCGGUGGCGCGAUAGCGCCUACGUCCUCAACCUCCAAUGCAUCCCACCACAUGAUGAUGCCAAAAGAGCCUUGGUUUUAUG, the “polymerase ribozyme fitness (log ratio)” value rises from -2.28 to -1.36.

GACCAAUCUGCGCUCAGAGCUCGAGAACAUCUUCGGAUGCAGAGGAGGCAGGAUUCUGUUGCGCGAUAGCGCCAACGUCCUCAACCUCCAAUGUAUCCCACCACAUUAUGAUGCCUGAAGAGCCUUGGUUUUUUG and GACCAAUCUGCGAUCAGAGCUCGAGAACAUCUUCGAAUGCAGAGGACGCAGGCUUCGGUGGCGCGAUAGCGCCAACGUCCUCAACUUCCAAUGCAUCCCACCACAUGAUGAUGGCUGAAGAGCCUUGGUUUUUUG are within 0.2 log units of each other in “polymerase ribozyme fitness (log ratio)” value: -6.32 for the first, -6.13 for the second.
